According to patent US20260078398A1, “PLANTS GENETICALLY ENGINEERED FOR INCREASED WATER USE EFFICIENCY AND CARBON INTAKE AND METHODS FOR MAKING AND USING THEM” (The Regents of the University of California, priority 2022, published 2026):

Tests used:
Brachypodium distachyon = assay: stomatal conductance after ABA added to the transpiration stream (gas exchange analyzer); format: in vivo; settings: 2 μM ABA
Protocol: We next investigated stomatal closure in response to abscisic acid.
(top infrared thermal image, bottom photo of the same plants). • (B) Stomatal density and (C) stomatal index were determined using leaf imprints created of the 4th true leaf of plants with 3 independent replicates plants per genotype with 4 images per plant. Circles represent counts per each image while diamonds are the average per each plant. Error bars represent SEM while p-values were obtained from two-tailed t-tests comparing mutant to WT. • (D) Stomatal conductance was quantified using a gas exchange analyzer. […] Data shown are the average of n=3±SEM plants per genotype using 1 leaf per experiment and genotype.
FIG. 14 (or FIG. 8 of Example 2): Bdmpk5 CRISPR Alleles Show Strong CO2 insensitivity but functional ABA responses. • (A, B) 5 to 6 week old plants were analyzed in time-resolved stomatal conductance analyses. • (A) CRISPR alleles show strongly impaired stomatal responses to CO2 shifts. […] Data shown are the average of n=3±SEM experiments using one leaf per experiment and genotype. • (C,D) Stomatal density (C) and stomatal index (D) were determined using leaf imprints created of the 4th true leaf with 3 replicate plants and genotype. […]

[1] = molecular target: T1, GST-CBC1 (recombinant Arabidopsis Raf-like kinase CBC1 with GST tag)
T1 sequence (Q9SSA4 whole entry, looked up): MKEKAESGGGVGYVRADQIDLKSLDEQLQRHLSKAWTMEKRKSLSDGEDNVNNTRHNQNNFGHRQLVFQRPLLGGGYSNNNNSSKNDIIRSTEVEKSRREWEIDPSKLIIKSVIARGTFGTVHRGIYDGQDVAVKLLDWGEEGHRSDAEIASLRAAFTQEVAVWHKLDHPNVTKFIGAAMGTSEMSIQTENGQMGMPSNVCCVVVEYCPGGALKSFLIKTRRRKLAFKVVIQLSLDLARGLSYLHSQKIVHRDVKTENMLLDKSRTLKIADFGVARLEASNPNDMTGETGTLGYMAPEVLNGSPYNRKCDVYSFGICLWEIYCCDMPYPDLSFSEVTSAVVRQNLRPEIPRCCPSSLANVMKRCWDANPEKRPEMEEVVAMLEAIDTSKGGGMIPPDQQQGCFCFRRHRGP

MPK4 and HT1 = assay: in vitro pull-down assay, His-HT1 with GST-MPK4; format: binding, Arabidopsis; settings: pull-down with or without 20 mM NaHCO3
Protocol: We therefore investigated a possible binding between MPK4 and HT1 and the effect of HCO3^−.
FIG. 4. […] CO2 concentration changes were applied as indicated on top (p.p.m.). n=6 experiments, error bars show ±SEM. • (J) Model of plant stomatal CO2 sensor and signaling (see text).
FIG. 6. […] Precipitated proteins were washed with buffers supplemented with NaHCO3 at the indicated concentrations (0, 2 or 20 mM). See FIG. 4d for an independent experiment. To control for effects of Na^+, 20 mM NaCl (0 mM NaHCO3) for lanes 1 and 4 were included in the buffers; and 18 mM NaCl (2 mM NaHCO3) for lane 3 were included in buffer.

[2] = molecular target: T2, GST-MPK4 (recombinant Arabidopsis MAP kinase MPK4 with GST tag)
T2 chain: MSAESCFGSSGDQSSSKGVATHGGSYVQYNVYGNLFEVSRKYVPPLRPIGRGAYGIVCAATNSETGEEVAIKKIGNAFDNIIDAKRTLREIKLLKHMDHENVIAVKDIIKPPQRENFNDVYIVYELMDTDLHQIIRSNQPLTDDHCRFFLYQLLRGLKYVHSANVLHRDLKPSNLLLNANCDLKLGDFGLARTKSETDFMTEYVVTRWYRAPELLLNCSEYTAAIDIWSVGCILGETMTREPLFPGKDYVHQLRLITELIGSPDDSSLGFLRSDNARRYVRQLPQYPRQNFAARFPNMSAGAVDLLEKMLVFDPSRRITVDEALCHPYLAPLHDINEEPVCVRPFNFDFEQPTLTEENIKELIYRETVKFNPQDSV

[3] = tested on: MPK4/12, HT1 and CBC1 recombinant proteins; assay: in vitro phosphorylation assay: NaHCO3-dependent down-regulation of HT1-mediated CBC1 phosphorylation; format: biochemical, Arabidopsis; settings: isoform replaces wild type protein or is added; 20 mM NaHCO3 vs NaCl control, 30 min
Protocol: We tested whether this HT1-mediated activation of CBC1 is inhibited by CO2/bicarbonate by adding NaHCO3 in in vitro phosphorylation reactions. […]
FIG. 2. […] Histone was used as an artificial protein kinase substrate. • (B) MPK4, HT1 and CBC1 proteins were incubated with NaHCO3 at the indicated concentrations for 30 min, and in vitro phosphorylation assays were performed. • (C) CBC1 band intensities as shown in (B) were measured using IMAGEJ™, n=4 experiments, error bars show ±S.D. • (D) MPK4, HT1 and CBC1 proteins were incubated in reaction buffers adjusted at different pH (6.5 to 8.5) for 30 min, and in vitro phosphorylation assays were performed. • (E) CBC1 band intensities and the density-ratios of ‘+NaHCO3’ to ‘—NaHCO3’ (=+NaCl controls) for each pH condition
FIG. 3. […] Ambient CO2 concentrations are indicated by the top bars. n=7 experiments, error bars show ±SEM. • (C) Recombinant HT1 (wild type, HT1-G89R or HT1-R173Q) and CBC1 proteins were incubated with MPK4 in the presence or absence of 20 mM NaHCO3 or 20 mM NaCl (−controls) for 30 min, and in vitro phosphorylation assays were performed. • (D) Recombinant MPK12, CBC1 and HT1 (WT or R102K) proteins were incubated with or without 20 mM NaHCO3 or 20 mM NaCl (−controls) for 30 min, and in vitro phosphorylation assays were performed. Histone was used as an artificial kinase substrate. • (E) HT1 (WT or A109V) proteins were used for in vitro phosphorylation assays. Proteins were incubated with or without 20 mM NaHCO3 or 20 mM NaCl (−controls) for 30 min. • (F) Stomatal conductances were analyzed using intact plants of Arabidopsis (Col-0 (WT), cbc1 cbc2, ht1-A109V and cbc1 cbc2 ht1-A109V). CO2 concentration changes were applied as indicated on top (p.p.m.). […]

BdMPK5, HT1 and CBC1 = assay: in vitro phosphorylation assay with GST-CBC1, His-HT1 and His-BdMPK5; format: biochemical, Brachypodium distachyon; settings: with or without 20 mM NaHCO3, n=2
Protocol: Furthermore, this activation of CBC1 is inhibited by elevated CO2/bicarbonate only when HT1, CBC1 and MPK4 or MPK12 are included in the reconstituted reaction (Takahashi et al., 2022). […] The high CO2/bicarbonate response was similar to high CO2 responses found for AtMPK4 and AtMPK12, but not for the close homolog AtMPK11 (Takahashi et al., 2022).
In vitro phosphorylation assays were performed using GST-CBC1, His-HT1 and His-BdMPK5 (WT or D90N) recombinant proteins with or without 20 mM NaHCO3. Phosphorylation levels of CBC1 (top) and Coomassie brilliant blue (CBB)-stained gels (bottom) are shown. • (B) AlphaFold2-predicted complex of BdMPK5 with HT1. BdMPK5 is shown in red, while HT1 is shown in blue. The BdMPK5-D90 residue, which is mutant in chill1, is colored green, and is predicted, based on the wildtype BdMPK5-HT1 simulation, to lie at the interface of BdMPK5 and HT1.

`CC1=CC(=O)CC(C)(C)[C@@]1(O)/C=C/C(C)=C\C(=O)O` [ABA, abscisic acid] was tested, and the “stomatal conductance response to ABA” value (Brachypodium distachyon; T3 BdMPK5 CRISPR lines) was “steep decline in conductance” and the “stomatal conductance response to ABA” value (Brachypodium distachyon; chill1 leaves, 5-week old) was “responded similarly to WT”.

B1: His-HT1 (recombinant Arabidopsis HT1 protein kinase, wild type, with His tag) (protein)
chain: MSGLCFNPFRLRWSLRSKLPLEPSLPNLPCNPSSSKTNRYAEAETMEKKRFDSMESWSMILESENVETWEASKGEREEWTADLSQLFIGNKFASGAHSRIYRGIYKQRAVAVKMVRIPTHKEETRAKLEQQFKSEVALLSRLFHPNIVQFIAACKKPPVYCIITEYMSQGNLRMYLNKKEPYSLSIETVLRLALDISRGMEYLHSQGVIHRDLKSNNLLLNDEMRVKVADFGTSCLETQCREAKGNMGTYRWMAPEMIKEKPYTRKVDVYSFGIVLWELTTALLPFQGMTPVQAAFAVAEKNERPPLPASCQPALAHLIKRCWSENPSKRPDFSNIVAVLEKYDECVKEGLPLTSHASLTKTKKAILDHLKGCVTSISSPFSSSSVPVNA
B1 was tested, and the “CBC1 phosphorylation, in vitro phosphorylation assay with radioactive 32P-ATP (FIG. 5)” value [1] was “We confirmed CBC1 phosphorylation by HT1 using recombinant His-HT1 and GST-CBC1 proteins”.

B2: HT1-R173Q (protein)
chain: MSGLCFNPFRLRWSLRSKLPLEPSLPNLPCNPSSSKTNRYAEAETMEKKRFDSMESWSMILESENVETWEASKGEREEWTADLSQLFIGNKFASGAHSRIYRGIYKQRAVAVKMVRIPTHKEETRAKLEQQFKSEVALLSRLFHPNIVQFIAACKKPPVYCIITEYMSQGNLQMYLNKKEPYSLSIETVLRLALDISRGMEYLHSQGVIHRDLKSNNLLLNDEMRVKVADFGTSCLETQCREAKGNMGTYRWMAPEMIKEKPYTRKVDVYSFGIVLWELTTALLPFQGMTPVQAAFAVAEKNERPPLPASCQPALAHLIKRCWSENPSKRPDFSNIVAVLEKYDECVKEGLPLTSHASLTKTKKAILDHLKGCVTSISSPFSSSSVPVNA
In the case of B2, the “HCO3- dependent binding of HT1 isoform with MPK4” value (MPK4 and HT1) is reported as “partially interact with MPK4”, the “NaHCO3-dependent CBC1 downregulation, in vitro phosphorylation assay with MPK4 and CBC1 (FIG. 3C)” value [2] is reported as “the R173Q mutation partly impaired the NaHCO3-dependent CBC1 downregulation” and the “NaHCO3-mediated down-regulation of CBC1 phosphorylation/activity with the protein isoform in the reaction” value [3] is reported as “partly impaired the NaHCO3-dependent CBC1 downregulation”.

B3: BdMPK5: recombinant Brachypodium distachyon MAP kinase BdMPK5, SEQ ID NO: 13 (protein)
chain: MRMEGGGAGPAAAAAAGGAHGLGEAQIKGTLTHGGRYVQYNVYGNLFEVSAKYVPPIRPVGRGACGIICAAINVQTREEVAIKKIGNAFDNQIDAKRTLREVKLLRHMNHENVISIKDIIRPPRRENFNDVYIVYELMDTDLHHLLRSNQPLTDDHCQYFLYQVLRGLKYVHSANVLHRDLRPSNLLLNAKCDLKIGDFGLARTTTETDFMMEYVVTRWYRAPELLLNCSEYTGAIDMWSVGCILGEIATREPLFPGKDYVHQLRLITELLGSPDDTSLGFLRSDNARRYVRSLPQYPKQQFRSRFPNMSSGAMDLLERMLVFDPNKRITVDEALCHPYLASLHEINDEPVCPAPFSFDFEQPSFTEEDIKELIWRESVKFNPEPIH
modifications: Synthetic: Bd21-3 (WT) BdMPK5
For B3, the “high CO2/bicarbonate-mediated down-regulation of CBC1 phosphorylation with BdMPK5 protein” value (BdMPK5, HT1 and CBC1) was “high CO2/bicarbonate-induced down-regulation of the CBC1 protein kinase activity”.

B4: BdMPK5-D90N: chill1 variant of BdMPK5 protein, SEQ ID NO: 14 (protein)
chain: MRMEGGGAGPAAAAAAGGAHGLGEAQIKGTLTHGGRYVQYNVYGNLFEVSAKYVPPIRPVGRGACGIICAAINVQTREEVAIKKIGNAFNNQIDAKRTLREVKLLRHMNHENVISIKDIIRPPRRENFNDVYIVYELMDTDLHHLLRSNQPLTDDHCQYFLYQVLRGLKYVHSANVLHRDLRPSNLLLNAKCDLKIGDFGLARTTTETDFMMEYVVTRWYRAPELLLNCSEYTGAIDMWSVGCILGEIATREPLFPGKDYVHQLRLITELLGSPDDTSLGFLRSDNARRYVRSLPQYPKQQFRSRFPNMSSGAMDLLERMLVFDPNKRITVDEALCHPYLASLHEINDEPVCPAPFSFDFEQPSFTEEDIKELIWRESVKFNPEPIH
modifications: Synthetic: Chill1 BdMPK5
For B4, the “high CO2/bicarbonate-mediated down-regulation of CBC1 phosphorylation with BdMPK5 protein” value (BdMPK5, HT1 and CBC1) was “abrogated the high CO2/bicarbonate-mediated downregulation of CBC1 phosphorylation”.
